Experiment: soluble on expression in E. coli; label from the status in PepcDB or PDB records
For “MPVTEVGSLPELNNILERSDANRLIIIDFFANWCGPCRMISPIFEQFSAEYGNATFLKVNCDVARDIVQRYNISAMPTFIFLKNRQQVDMVRGANQQAIAEKIRQHYSPTPANPNAASDSEKRFLEQFVKCSNVPRSYQDEVFKALARSVMPEELVGRAMTEGPRDEKAILKDLLHWFKTQFFTWFDRPTCPKCTLKCSTDGLQGTPTREEQKEGGASRVEVYICDGCNTEMRFPRYNNPAKLLQTRTGRCGEWANCFGLLLAALNLESRFIYDTTDHVWNEVYLLAEQRWCHVDPCENTMDRPLLYTRGWGKTLGYCIGYGSDHVVDVTWRYIWDSKKLVTQRNEVRQPVFENFLSKLNSRQAEGQTEPRKRELAVRRVCELMEMMAQEAKNHKIGWEKIGDDLGGRITGSEEWRRERGELGESGPKLLAEPIKLAPPTGPAQNYLEFNYDVITDTYSQPPEIGFSAQAFELENVQRVEETDWNMTYLCRKRGDAPGNISWHFDLKSLKKSIEKIEIRMAGIQKFEKGKAMAIACLGDSCMRLPIDCSALTIEDPKNAEILKITATLSGGEGAIGFQQAQIFRTELKRGGGARTESFSVKIWMKN”, the “soluble on expression in E. coli” value was “not soluble”. For “MPYRKYREKKYETKYREAFKLFQEKIGITFTDEKLLIQAFTHSSYVNEHRKKPHEDNERLEFLGDAVLELTVSQYLFQKYPTMSEGELTKLRAAIVCEPSLVRFANELSFGSLVLLGKGEEMTGGRERPALLADVFEAFIGALYLDQGLETVWGFLKEIVYPKINEGAFSHVMDYKSQLQELIQRDGSGNIEYQILQEKGPAHNREFVSRVTLNNVALGLGSGKSKKEAEQQAAAEALKKLKEQL”, the “soluble on expression in E. coli” value was “soluble”. For “MQAIAIDQFSEPEETQVEQVENPDRNEAGYEVCNQSGENLSVAIAYFDTSIDSYRSEGWWNLDQSKCQFFPNLLDSVDEVYVFAESDQTLWSGDFPFCMQEDAFEYPDANRDRCPSPAYSKGFLKVEVGDAKTWTTNLTPSQLEHHHHHH”, the “soluble on expression in E. coli” value was “not soluble”. With “MQCGLLKHRLLKFFSTEAIMTTNQRSIKAPQTVVVKLGTSVLTGGTLALDRAHMVELARQCAELKKQGHSVVIVTSGAIAAGREHLGYPALPNAISSKQLLAAVGQSRLIQVWESLFAIYGIKIGQMLLTRADLDDRERFLNARDTINALVENGIVPVVNENDAVATNEIKVGDNDNLSALVGILCGADKLLLLTDQKGLFTADPRKDPNAQLIKEVTTIDDTLRKIAGGSGTTLGTGGMATKLQAADIARRAGIEVIIAAGRAPNVIFDSLSDEPQGTRFLALEEALENRKRWILAGPAASGDIVIDDGAVKAVQTKGSSLLAKGVVRVQGQFARGEVVRVLDKQSHLIARGIAAYSNDELAQIAGKHSKEIIDILGYDHGSEVIHRDDMVVIQE” the “soluble on expression in E. coli” value was “not soluble”. In the case of “MQEAIITSTVDLTSGGCNACGLVEDTVYTLAMNGVDIPLDGLTVAHLVSAIVARNGFKQELQMDMLDDEYILYRKEDTTVTFKEAYNHLSYDNGSEKIQSKNKLEDLPKLFEQVNQILTTVFGIGTVNFIIE”, the “soluble on expression in E. coli” value is reported as “not soluble”. For “MQEGYREYRDIHARLNLPLLETGALVAAWSDEDLARLPAIVEQAHGNGVDDVRQVGRDEVLALEPQLAGNVLGAVRVPGEHLVDPWSAPLAYLQQALAHGAEACFDVEVLDGAFDGGEWLLHTRRGDLRASQVINCAGLFGDQLEQRLLGAASFAIHPRKGQFVVFDKAAAALLRHILLPVPNERTKGVVFTRTVFGNLLAGPTAEEQDDREQARVDSDTLQRLIDAAVERIPGLRGMPVTATYAGLRPASEKKEYRIRQVDGRNWISVGGIRSTGLTAALGIARHVYRLYQGERFHEAVREPLWPQVPNLAEHLPRDWQRPGYDEIVCHCEMVTRREILAALEGPLPAGDFGGLKRRTRACMGRCQGFYCNARVAELSAGRLAQPLATGSCHEHH”, the “soluble on expression in E. coli” value was “not soluble”. For “MQEILIPLKEKNYKVFLGELPEIKLKQKALIISDSIVAGLHLPYLLERLKALEVRVCVIESGEKYKNFHSLERILNNAFEMQLNRHSLMIALGGGVISDMVGFASSIYFRGIDFINIPTTLLAQVDASVGGKTGINTPYGKNLIGSFHQPKAVYMDLAFLKTLEKREFQAGVAEIIKMAVCFDKNLVERLETKDLKDCLEEVIFQSVNIKAQVVVQDEKEQNIRAGLNYGHTFGHAIEKETDYERFLHGEAIAIGMRMANDLALSLGMLTLKEYERIENLLKKFDLIFHYKILDLQKFYERLFLDKKSENKTIKFILPKGVGAFEVASHIPKETIIKVLEKWH”, the “soluble on expression in E. coli” value was “soluble”. In the case of “MQEISFRNDILPLKDKLFRLALRITLDRAEAEDVVQDTMIRVWNKRDEWSQFESVEAYCLIVAKNLAIDRSQKKEAQNVEITPEMEEEPDANSPYDQLVHDEKMNIINRLVNELPEKQRLIMQLRDIEGESYKKIATLLNLTEEQVKVNLFRARQKVKQRYLEIDEYGL”, the “soluble on expression in E. coli” value is reported as “not soluble”. In the case of “MQENSPLLQLQNVGYLAGDAKILNNINFSLRAGEFKLITGPSGCGKSTLLKIVASLISPTSGTLLFEGEDVSTLKPEIYRQQVSYCAQTPTLFGDTVYDNLIFPWQIRNRQPDPAIFLDFLERFALPDSILTKNIAELSGGEKQRISLIRNLQFMPKVLLLDEITSALDESNKHNVNEMIHRYVREQNIAVLWVTHDKDEINHADKVITLQPHAGEMQEARYELA”, the “soluble on expression in E. coli” value is reported as “not soluble”. In the case of “MQEQLEKMFFLSAEFVEAVDARGMTEREKNVFFDTELFCKRYVKEVRPGEIGCTLSHQKCYRKLVESRDKYALILEDDIVIRHNIDTLVPEIEKLLNTDEPRVILLSGWYWYLGTKTIKQHYCLARVYDAFLTHAYIINREAASLLIEQRPFITADDWFYIRKKGVKLYAVLPHLLDQDWSGEYPTSINQEEKKRCPGLWKRKIEICFHSLLLKFLYIIKRFEKALEHHHHHH”, the “soluble on expression in E. coli” value is reported as “not soluble”. In the case of “MQFFISSAILFSYAFCQSIPNVILTGEPRVVARRILNVDMKAAQQLALPDDQQHVRYQVNVVRNQENPSDSTYLTGERTPVTVYRRILRPARITFTGDGVITDSWQGTSDAVEMESWTLNRRPTIDGSFVQPTQNQQGAFH”, the “soluble on expression in E. coli” value is reported as “not soluble”. With “MQHHGVTKCNITCSKMTSKIPVALLIHYQQNQASCGKRAIILETRQHRLFCADPKEQWVKDAMQHLDRQAAALTRNG” the “soluble on expression in E. coli” value was “soluble”. In the case of “MQIKAGLIWMNGAFVPQEEAKTSVLSHALHYGTSVFEGIRAYETAKGPAIFRLKEHVKRFYNSAKVLRMEIPFAPEELEEAIKEVVRRNGYRSCYIRPLAWMGAKALGVNPLPNNPAEVMVAAWEWGAYLGEEAVRKGARLITSSWARFPANVMPGKAKVGGNYVNSALAKMEAVAAGADEALLLDEEGYVAEGSGENLFFVRDGVIYALEHSVNLEGITRDSVIRIAKDLGYEVQVVRATRDQLYMADEVFMTGTAAEVTPVSMIDWRPIGKGTAGPVALRLREVYLEAVTGRRPEYEGWLTYVNGQ”, the “soluble on expression in E. coli” value is reported as “soluble”. For “MQIKLANPRGFCAGVDRAIEIVNRALEVFGPPIYVRHEVVHNKFVVEDLRSRGAIFVEELEQVPDDVIVIFSAHGVSQAVRTEAAGRGLKVFDATCPLVTKVHIEVARYSRDGRECILIGHAGHPEVEGTMGQYDAVNGGAIYLVEDEADVASLEVRNPESLAFVTQTTLSMDDTSRVIDALRKRFPAIGGPRKDDICYATQNRQDAVKQLADECDVVLVVGSPNSSNSNRLRELAERMATPAYLIDGAEDMQKGWFDGVERIGITAGASAPEVLVRGVIQQLQAWGATGADELAGREENITFSMPKELRVKSLLLEHHHHHH”, the “soluble on expression in E. coli” value was “not soluble”. With “MQIPHGELRTLTYHSNALKSERQMYVWTPPGYSESSKPLPVLYFYHGFGDTGASAVVQGRIPQMMDNLLAEKKIEPMLVVIPDTETDVPGIIPEEYPPQERRKVFYPRNALAADRELIHDIIPAIGKRFNVRQDANGRALAGLSQGGYQALVSGMSHLDHFGWLATFSGVTTETVPNMAVAAQLERPEQINQQLKNLTVVIGETDNITGKDIAGLKTMLEQKNIRFDYTHYPNLGHEMDVWRPAYSEFVQKLFKLEHHHHHH” the “soluble on expression in E. coli” value was “not soluble”. With MQKHFDCVLKHLLSRCCARRRESSFRPAPAGKVFLD the “soluble on expression in E. coli” value was “not soluble”. In the case of “MQKKSIYVAYTGGTIGMQRSDNGYIPVSGHLQRQLALMPEFHRPEMPDFTIHEYAPLIDSSDMTPEDWQHIANDIQQNYDLYDGFVILHGTDTMAFTASALSFMLENLAKPVIITGSQIPLAELRSDGQTNLLNALYLAANHPVNEVSLFFNNQLFRGNRTTKAHADGFDAFASPNLSVLLEAGIHIRRQSSVVSPTSNGPLIVHRITPQPIGVVTIYPGISGAVVRNFLLQPVKALILRSYGVGNAPQKAELLDELKNASDRGIVVVNLTQCISGSVNMGGYATGNALAQAGVISGFDMTVEAALTKLHYLLSQSLSPNEIRQLMQQNLRGELTDTQ”, the “soluble on expression in E. coli” value is reported as “soluble”. With “MQKLKQQVFDANMDLPRYGLVTFTWGNVSAIDRERGLVVIKPSGVAYETMKVDDMVVVDMDGKVVEGRYRPSSDTATHLALYQRYPSLGGVVHTHSTHATAWAQAGMAIPALGTTHADYFFGDIPCTRALSEEEVQGEYELNTGKVIIETLGEVEPLHTPGIVVYQHGPFAWGKDAHDAVHNAVVMEEVARMAWIARGINPALNPIDDYLMNKHFMRKHGPNAYYGQK” the “soluble on expression in E. coli” value was “not soluble”. For “MQKRVKEGPFTTEWIDLYLEEAVRKGIKEVGIVDHLYRFHEAKGYYEKYVDISDSKLGRIQKEWLDQVKVVSLYDFTKAIEEAKERWGKRGVTLKLGIEADYFIGCEGELKELLALGDFDYVIGSVHFLNGWGFDNPDTKEYFEVHDLRALYDMFFKTVESAIRTELFDIIAHLDNIKVFNYRLDENEQLSYYEEIACALVETNTATEINAGLYYRYPVREMCPSPLYLQVLAKYGVPITISSDAHYPNDLGNYVQENIQTLRAHGVTQVATFTKRARVMRSLEEEVTNSK”, the “soluble on expression in E. coli” value was “not soluble”. In the case of “MQKVCEKRIDSVVASAVEGSGMFYAVRFEPPPSKTCFDVTLKTYGPPYTEYIVTVAIPPKFPFSPPAITCKTDKNMKFLFLEENQWKPSTGIVAVLIEACSVISRRDLVPRAPVLPRIRPPQARTPTSASPAKSPQKAD”, the “soluble on expression in E. coli” value is reported as “not soluble”. For “MQLDRVDRKILNELYNDSRLSMRELAKRVNLSAPSTSERVRKLESEGVIQKYTIDIDYKKAGLVLDCILEITLKNGDTTRMQQFIQSYPSASFCYRVTGSLCYIVKISVPSLVELEEFINDVSSYATTVSHIVLSEVSLTPDIEHIFPED”, the “soluble on expression in E. coli” value was “not soluble”. With “MQLQKLVNMFGGDLTRRYGQKVHKLTLHGGFSCPNRDGTIGRGGCTFCNVASFADEAHEHRSIAEQLAHQANLVNRAKRYLAYFQAYTSTFAEVQVLRSMYQQAVSQANIVGLCVGTRPDCVPDAVLDLLCEYKDQGYEVWLELGLQTAHDKTLHRINRGHDFACYQRTTQLARQRGLKVCSHLIVGLPGEGQAECLQTLERVVETGVDGIKLHPLHIVKGSIMAKAWEAGRLNGIELEDYTLTAGEMIRHTPPEVIYHRISASARRPTLLAPLWCENRWTGMVELDRYLNEHGVQGSALGRPWLPPTELEHHHHHH” the “soluble on expression in E. coli” value was “not soluble”. With “MQMSMLTRLHYFNCVVETGSISKASRIFDVQPSSISRQLTALEKELGVLLLKRTSRNIGLTEAGQTYYKYSQKIVSDLDEARCAVNDLQQKPKGNLKVSMAVGFAECCILPMIPTFTKLYPEINLELEMTGRVVDLVEENVDVAIRTGRLRDSNLIALKLTSNNFLLCASPQYITEHGTPKSPFNLTDFECIRYEYAGWRDWYLMNDKPTKLTIKSGLTVRSINGQKQLILNHAGLALMPKWSVINELDNGTLVQVLEQNIFSPYESMSSTYAIYLKRELISPKVRVFIDFIKDHIDYNS” the “soluble on expression in E. coli” value was “not soluble”. In the case of “MQPDVSFAPDVSFVIASYNAEATLDRAIASAIAQKGVSVEIIVVDDQSRDATLDVARAYPGDIVRVVALAKNRGPGGARNAGLDVARGRWIAVLDSDDAVFPGRLAAMISRAEKADAQIAVDNLQVIREDGVVEDAMFPRQYLEGLREISLATYIAGNVVFESKFNLGYLKPIFQRRFLDENRLRYDEQLRIGEDYILFAEALAKGGRCVVEPAIGYAYHIRSGSISRVLELHHVEAMRKADAVFAQTHRMDEAAQVAFARRGRSLRKAASFLAMVQHIKARSPLKAIRTALSDPAAVRHMGMPIAVRLRRVAAQFAVGAGRLEHHHHHH”, the “soluble on expression in E. coli” value is reported as “soluble”.

From the DeepSol protein solubility set
